In PMC9576616, “Synthesis, preclinical evaluation and radiation dosimetry of a dual targeting PET tracer [^68Ga]Ga-FAPI-RGD” (Theranostics, 2022):
Like-named read-outs stand apart in the source and are kept apart here.

What was measured:
[1] = test system: primary tumors and metastases; assay: Comparison of [^68Ga]Ga-FAPI-RGD and 2-[^18F]FDG PET/CT tumor uptake in patients
Description: (§1) All patients underwent [^68Ga]Ga-FAPI-RGD PET/CT and 2-[^18F]FDG PET scanning using a dedicated PET/CT scanner (Biograph mCT64, Siemens Healthcare).
(§2) [^68Ga]Ga-FAPI-RGD PET/CT The CT scans were performed with a tube voltage of 120 kV, an effective tube current of 70-120 mA (Care Dose 4D), and a slice thickness of 3 mm. Serial whole-body dynamic PET scans were immediately performed after the CT scan in 3D acquisition mode (matrix: 200 × 200). The whole body (from the top of skull to the middle of femur) of each patient was covered by 6 bed positions. The acquisition duration was 30 s/bed position at 3 min after injection; 1 min/bed position at 15 min after injection; and 2 min/bed position at 30, 60, and 120 min after injection.
(§3) 2-[^18F]FDG PET/CT All patients were fast at least 6 h to keep and images were obtained at 60-80 min after the intravenous injection of 2-[^18F]FDG (3.70 MBq [0.10 mCi]/kg). 2-[^18F]FDG was purchased from Fuzhou PET-Tracer Co. Ltd, and the radiochemical purity was more than 95%.
(§4) For [^68Ga]Ga-FAPI-RGD PET/CT, only PET/CT datasets acquired approximately 1 h after injection were used for analysis.

[2] = MicroPET imaging in Panc02 tumor-bearing mice; set-up: species or system C57BL/6 mice; conditions: C57BL/6, mouse, in vivo, iv, 7.4 MBq, total radioactivity; for tissue uptake at 0.5 h: 0.5 h p.i.; for tissue uptake at 1 h: 1 h p.i.; for tissue uptake at 2 h: 2 h p.i.; for tissue uptake at 4 h: 4 h p.i.
Description: All animal studies were approved by the Animal Care and Use Committee of Xiamen University and carried out in compliance with the national laws related to the conduct of animal experiments. Panc02 tumor model was generated by subcutaneous injection of 5 × 10^6 tumor cells suspended in 100 μL PBS, into the upper limb flank of C57BL/6 mice (Beijing Vital River Laboratory Animal Technology Co., Ltd.). The tumor mice were subjected to microPET and biodistributions studies when the tumor volume reached 200-300 mm^3.
PET scans were performed by using Inveon small-animal PET scanner (Siemens Preclinical Solution). About 7.4 MBq of [^68Ga]Ga-FAPI-RGD was given to Panc02 tumor xenografted mice through tail vein injection for the 10-min static PET imaging. At 0.5, 1, 2 and 4 h post-injection (p.i.), mice were anaesthetized and placed on imaging chamber of PET/CT scanner for image acquisition. […] The blocking study was performed by injecting unlabeled c(RGDfK), FAPI-02, or RGDfK+FAPI-02, before administering [^68Ga]Ga-FAPI-RGD. PET images were reconstructed using three-dimensional ordered-subset expectation-maximization (3D OSEM) algorithm and with a Maximum a Posteriori (MAP) method and analyzed through drawing regions of interest (ROIs).

[3] = clinical; conditions: human, in vivo, total radioactivity
Description: as §1, §2, §3, §4

[4] = human, in vivo
Description: Organ delineation and activity accumulation at each imaging time point was determined using Hybrid-Dosimetry software (Hermes Medical Solutions, Sweden). Time-activity curve fitting and subsequent dose calculation was performed using OLINDA/EXM, version 2.2.0. Kidneys, liver, spleen, urinary bladder content, L2-L4 lumbar vertebrae for red marrow dosimetry, heart content, lung, brain, pancreas, thyroid, salivary glands and stomach contents were included as source organs. Red bone marrow dosimetry was done by image-based 3D volumetric analysis of L2-L4 vertebrae, which is considered to constitute 6.7% of the total bone marrow. The ROIs for the above organs were drawn from the examination that had the best organ delineation and then were copied onto all other time points to calculate the time-activity curves. The mono- or bi-exponential curve fitting parameters were applied to derive the best curve fit for the residence time of activity in the source organ. Once all the organ residence times were derived from the kinetic input model, they were entered in the adult female or male model data to derive the absorbed doses to all the organs, including the whole-body effective dose, and generated in mSv/MBq and rem/mCi. The time-activity graphs of various organs were generated using GraphPad Prism software.

[5] = type: physicochemical
Description: Radiolabeling of ^68Ga was performed by incubation with 50 μg FAPI-RGD in NaOAc buffer solution (pH = 4.5) at 95 ℃ for 10 min. The product was purified by C18 column extraction. The radiochemical purity and stability of [^68Ga]Ga-FAPI-RGD were determined by radio-HPLC.
FAPI-RGD and its intermediate products were characterized by TOF-MS and HPLC (Figure S1-9). The radiolabeling yield and radiochemical purity of [^68Ga]Ga-FAPI-RGD were consistently over 99%. […] The radiochemistry purity was over 99% within 4 h.

[6] = clinical; conditions: human, in vivo, total radioactivity; remark: listed apart in the source
Description: (§5) This study was approved by the institutional review board of the First Affiliated Hospital, Fujian Medical University and registered at ClinicalTrials.gov (NCT05515783). All patients signed an informed consent form before participation and all procedures were conducted in accordance with the Declaration of Helsinki. The inclusion criteria were as follows: […] (2) primary malignancies confirmed by pathology. The exclusion criteria were patients: (1) who suffered from severe hepatic and renal insufficiency; (2) pregnant or lactational women.

[7] = test system: malignant tumors and normal organs; assay: clinical; conditions: human, in vivo
Description: as §5

[8] = in vivo; set-up: species or system C57BL/6 mice; conditions: C57BL/6, mouse, iv, 740 kBq, total radioactivity
Description: All animal studies were approved by the Animal Care and Use Committee of Xiamen University and carried out in compliance with the national laws related to the conduct of animal experiments. […] Tissue and organs of interest were collected, wet weighted and activity measured by a γ-counter. […] The results were calculated as percentage of injected dose per gram (%ID/g).

[9] = test system: Panc02 tumor cells; assay: Cellular uptake assay on Panc02 tumor cells; type: cell-based; conditions: 37 kBq, 37 °C, 10, 30, 60, 90 and 120 min, n = 4
Description: Panc02 cell line was purchased from the American Type Culture Collection (ATCC), and cultured in Dulbecco modified Eagle medium (DMEM) containing 10% (v/v) fetal bovine serum (FBS) at 37 °C with 5% CO2. Panc02 cells were seeded in 24-well plates with 2 × 10^5 cells per well. […] Then, the medium was removed and the cells were washed twice with cold PBS (pH 7.4) and subsequently lysed with 0.5 mL of NaOH (1 M). In the blocking studies, excess amount of unlabeled FAPI-RGD, FAPI-02, RGDfK, FAPI-02+RGDfK (10 μg/well) were added as inhibitors into the cells along with [^68Ga]Ga-FAPI-RGD. After 1 h, the cells were treated in the same way. Cell lysates was collected and the radioactivity was determined using a γ counter.

[10] = i.v. tail vein, n = 3, ROI, mean ± SD
[11] = average SUVmean of thyroid glands

OC[C@H]1O[C@@H](O)[C@H]([18F])[C@@H](O)[C@@H]1O [2-[^18F]FDG, reference compound]
mean SUVmax in primary tumors ([1]; 6 patients, FAPI-RGD approximately 1 h after injection, FDG 60-80 min after injection, mean ± SD, p = 0.459): 10.3 ± 6.9 | SUVmax of primary lesion, patient with renal cell carcinoma ([1]; single patient, intra-individual comparison): 2.7 | SUVmax of metastasis ([1]; three patients with metastatic foci, mean ± SD, p = 0.373): 7.6 ± 5.3

N#C[C@@H]1CCCN1C(=O)CNC(=O)c1ccnc2ccc(OCCCN3CCN(C(=O)CCOCCOCCNC(=O)[C@H](CCC(=O)NCCOCCOCCC(=O)NCCCC[C@@H]4NC(=O)[C@@H](Cc5ccccc5)NC(=O)[C@H](CC(=O)O)NC(=O)CNC(=O)[C@H](CCCNC(=N)N)NC4=O)NC(=O)CN4CCN(CC(=O)O)CCN(CC(=O)O)CC4)CC3)cc12 [[^68Ga]Ga-FAPI-RGD, metal not drawn]
tissue uptake at 0.5 h [2, 10]: 5.25 ± 0.54 %ID/g | tissue uptake at 1 h [2, 10]: 5.13 ± 0.65 %ID/g | tissue uptake at 2 h [2, 10]: 5.33 ± 0.27 %ID/g | tissue uptake at 4 h ([2]; i.v. tail vein, n = 3, ROI, mean ± SD, read-out: tumor uptake (microPET)): 5.04 ± 0.16 %ID/g | tissue uptake at 4 h ([2]; n = 3, read-out: blood uptake (microPET)): 1.4 ± 0.08 %ID/g | tissue uptake at 4 h ([2]; n = 3, read-out: kidney uptake (microPET)): 2.78 ± 0.46 %ID/g | tissue uptake at 4 h ([2]; n = 3, read-out: liver uptake (microPET)): 1.83 ± 0.39 %ID/g | SUV at 1 h ([3]; SUVmax of metastasis): 6.5 ± 2.6 SUV | SUV at 1 h ([3]; SUVmax of primary lesion, patient with renal cell carcinoma): 5.1 SUV | SUV at 1 h ([3]; mean SUVmax in primary tumors): 8.9 ± 3.2 SUV | effective dose [4]: 1.94 mSv/100 MBq | total body effective dose for administration of 185 MBq (5.0 mCi) [4]: 3.6 mSv | Estimated absorbed dose, Adrenals ([4]; iv): 1.04E-02 mSv/MBq | Estimated absorbed dose, Brain ([4]; iv): 3.38E-03 mSv/MBq | Estimated absorbed dose, Esophagus ([4]; iv): 7.55E-03 mSv/MBq | Estimated absorbed dose, Eyes ([4]; iv): 5.47E-03 mSv/MBq | Estimated absorbed dose, Gallbladder Wall ([4]; iv): 8.35E-03 mSv/MBq | Estimated absorbed dose, Heart Wall ([4]; iv): 2.04E-02 mSv/MBq | Estimated absorbed dose, Kidneys ([4]; iv): 3.24E-02 mSv/MBq | Estimated absorbed dose, Left colon ([4]; iv): 7.80E-03 mSv/MBq | Estimated absorbed dose, Liver ([4]; iv): 1.45E-02 mSv/MBq | Estimated absorbed dose, Lungs ([4]; iv): 2.33E-02 mSv/MBq | Estimated absorbed dose, Osteogenic Cells ([4]; iv): 1.07E-02 mSv/MBq | Estimated absorbed dose, Pancreas ([4]; iv): 3.06E-02 mSv/MBq | Estimated absorbed dose, Prostate ([4]; iv): 1.24E-02 mSv/MBq | Estimated absorbed dose, Rectum ([4]; iv): 1.06E-02 mSv/MBq | Estimated absorbed dose, Red Marrow ([4]; iv): 1.45E-02 mSv/MBq | Estimated absorbed dose, Right colon ([4]; iv): 7.53E-03 mSv/MBq | Estimated absorbed dose, Salivary Glands ([4]; iv): 2.09E-02 mSv/MBq | Estimated absorbed dose, Small Intestine ([4]; iv): 8.16E-03 mSv/MBq | Estimated absorbed dose, Spleen ([4]; iv): 2.25E-02 mSv/MBq | Estimated absorbed dose, Stomach Wall ([4]; iv): 1.20E-02 mSv/MBq | Estimated absorbed dose, Testes ([4]; iv): 7.13E-03 mSv/MBq | Estimated absorbed dose, Thymus ([4]; iv): 7.41E-03 mSv/MBq | Estimated absorbed dose, Thyroid ([4]; iv): 3.31E-02 mSv/MBq | Estimated absorbed dose, Total Body ([4]; iv): 8.92E-03 mSv/MBq | Estimated absorbed dose, Urinary Bladder Wall ([4]; iv): 2.26E-01 mSv/MBq | effective dose ([4]; iv): 1.94E-02 mSv/MBq | time of good stability in saline [5]: at least 4 h | SUV at 0.05 h [6, 11]: 7.8 SUV | SUV at 2 h [6, 11]: 3 SUV | SUV at 0.05 h ([6]; average tumor SUVmax): 7 SUV | SUV at 0.25 h ([6]; average tumor SUVmax): 8 SUV | SUV at 0.5 h ([6]; average tumor SUVmax): 8 SUV | SUV at 1 h ([6]; average tumor SUVmax): 8.3 SUV | SUV at 2 h ([6]; average tumor SUVmax): 9.1 SUV | decline of thyroid SUVmean from 3 min to 2.0 h [7]: 62.5% | main excretory organs [7]: kidneys were the main excretory organs | tissue uptake at 0.5 h [8]: 6.16 ± 0.46 %ID/g | tissue uptake at 1 h [8]: 5.95 ± 0.43 %ID/g | tissue uptake at 2 h [8]: 5.78 ± 0.28 %ID/g | tissue uptake at 4 h [8]: 5.79 ± 0.22 %ID/g

N=C(N)NCCC[C@@H]1NC(=O)[C@H](CCCCNC(=O)CN2CCN(CC(=O)O)CCN(CC(=O)O)CC2)NC(=O)[C@@H](Cc2ccccc2)NC(=O)[C@H](CC(=O)O)NC(=O)CNC1=O [[^68Ga]Ga-RGDfK, metal not drawn, reference compound]
tissue uptake at 0.5 h [2, 10]: 3.96 ± 0.24 %ID/g | tissue uptake at 1 h [2, 10]: 3.4 ± 0.16 %ID/g | tissue uptake at 2 h [2, 10]: 2.89 ± 0.09 %ID/g | cellular uptake compared with [^68Ga]Ga-FAPI-RGD [9]: less than [^68Ga]Ga-FAPI-RGD at all the time points | tissue uptake at 1 h [8]: 3.51 ± 0.47 %ID/g
